Source: patent publication US7285395B2, “Stearoyl-CoA desaturase 4 gene” (Wisconsin Alumni Research Foundation, priority 2004, dated 2007)

What was measured:
Assay type in all cases: in vivo, mouse
ob/ob mice = test: food intake and body weight of ob/ob mice under subcutaneous leptin treatment; settings: leptin 200 ng/h subcutaneous miniosmotic pump
Method: Subcutaneous Leptin Treatment—ob/ob mice were individually caged and allowed to acclimate for a number of days prior to the start of the experiment. The mice were treated with 200 ng/h of recombinant mouse leptin (Amgen, Thousand Oaks, Calif.) […] phosphate-buffered saline (PBS) for 12 days using subcutaneously placed Alzet miniosmotic pumps model 1002 (AlZa Co., Palo Alto, Calif.) as described in Soukas, A. et al. (2000) Genes Dev. 14, 963-980, which is herein incorporated by reference in its entirety. As an additional control, a group of mice referred to as pair-fed was treated with PBS and given the same amount of food to eat as leptin-treated mice voluntarily consumed. All of the data presented were generated from this or a similar time course where mice were either treated with PBS or leptin for 12 days. Body mass and food intake were measured daily.
ob/ob mice have a mutation in the leptin gene and are a model of obesity, insulin resistance, and diabetes. […] We analyzed the mRNA level of the SCD4 isoform in the hearts of leptin-deficient ob/ob mice and ob/ob mice treated with either PBS or leptin. As an additional control, RNA isolated from saline-treated ob/ob mice that were pair-fed to the leptin treated group for 12 days was also analyzed. […] To determine which SCD isoform(s) accounted for these effects, we measured RNA levels of mSCD1, mSCD2, and mSCD4. […]

mSCD2 = test: quantitative RT-PCR of mSCD2 mRNA in hearts of leptin-treated ob/ob mice; settings: heart of leptin-treated ob/ob mice, 12 days
Method: (§1) A, SCD activity: Microsomes were prepared from hearts of PBS-treated, ob/ob, ob/ob pair-fed (PF), and leptin-treated (ob/ob-Leptin) mice, and SCD enzyme activity was determined by measuring the incorporation of radioactivity in oleoyl-CoA using [1-^14C]stearoyl-CoA as a substrate. The reaction products were separated by TLC, and the radioactivity was quantitated. Each value represents the mean±S.E. (n=4). B, Levels of monounsaturated fatty acids in the hearts of ob/ob mice: Total fatty acids were extracted from heart of ob/ob mice treated with either leptin or PBS and wild type controls quantitated by GLC as described in the example below. *, p<0.05 versus wt-PBS; #,p<0.05 versus ob/ob-PBS. C, Total RNA was prepared from hearts of PBS or leptin-treated ob/ob mice and used to measure SCD1, SCD2, and SCD4 mRNA levels by quantitative RT-PCR analysis. The fold change relative to that of wild type was calculated after correction for the levels of cyclophilin used as a standard. Each value represents the mean±S.E. (n=4).
(§2) Subcutaneous Leptin Treatment—ob/ob mice were individually caged and allowed to acclimate for a number of days prior to the start of the experiment. […] Body mass and food intake were measured daily. […]

mSCD1 = test: quantitative RT-PCR of mSCD1 mRNA in hearts of leptin-treated ob/ob mice; settings: heart of leptin-treated ob/ob mice, 12 days
Method: as §1, §2

B1: leptin: recombinant mouse leptin (Amgen, Thousand Oaks, Calif.) (protein, UniProt P41160 22-167, looked up)
Leptin: VPIQKVQDDTKTLIKTIVTRINDISHTQSVSAKQRVTGLDFIPGLHPILSLSKMDQTLAVYQQVLTSLPSQNVLQIANDLENLRDLLHLLAFSKSCSLPQTSGLQKPESLDGVLEASLYSTEVVALSRLQGSLQDILQQLDVSPEC
In the case of B1, the food intake (ob/ob mice; after 12 days of treatment) is reported as 1.2 ± 0.1 g, the “loss of initial weight” value (ob/ob mice; end of 12-day treatment) is reported as 34±0.8% and the “expression of mSCD2 isoform” value (mSCD2) is reported as “unchanged”. The “expression of mSCD1 isoform” value (mSCD1) was “unchanged”.
